According to PMC6548343:

Target: Nucleosomes (Nuc207) with 30 bp linker DNA at both ends
Assay: EM 3D reconstruction of the assembled complex; ~30 μg/ml actin/Arp module with a 10-fold molar excess of Nuc207, 2 h at 4°C, 20 mM HEPES pH 8.0, 40 mM KOAc, 5 mM MgCl2, no ATP; two binding states

stoichiometry N: 1
Substance: INO80 N-terminal subcomplex (N.com) (from UniProt P53115 356-691; P60010 1-375; P80428 1-489; Q12386 1-881; P35189 1-244; Q08561 1-116)
